Holding throughout (experiment): purified protein
Substrate in series [1]: COc1cc(/C=C/C(=O)SCCNC(=O)CCNC(=O)[C@H](O)C(C)(C)COP(=O)(O)OP(=O)(O)OC[C@H]2O[C@@H](n3cnc4c(N)ncnc43)[C@H](O)[C@@H]2OP(=O)(O)O)ccc1O
Particulars: acyl donor, amine acceptor 100 μM (which amine not told), 10 mM MgCl2, Tris-HCl pH 7.4, 30 °C.

Substrate in series [2]: CC(C)(COP(=O)(O)OP(=O)(O)OC[C@H]1O[C@@H](n2cnc3c(N)ncnc32)[C@H](O)[C@@H]1OP(=O)(O)O)[C@@H](O)C(=O)NCCC(=O)NCCSC(=O)/C=C/c1ccc(O)cc1
Particulars: acyl donor, amine acceptor 100 μM (which amine not told), 10 mM MgCl2, Tris-HCl pH 7.4, 30 °C.

Substrate in series [3]: NCCCCN
Particulars: acyl acceptor, feruloyl-CoA 50 μM as donor, 10 mM MgCl2, Tris-HCl pH 7.4, 30 °C.

Substrate in series [4]: CC(C)(COP(=O)(O)OP(=O)(O)OC[C@H]1O[C@@H](n2cnc3c(N)ncnc32)[C@H](O)[C@@H]1OP(=O)(O)O)[C@@H](O)C(=O)NCCC(=O)NCCSC(=O)/C=C/c1ccc(O)c(O)c1
Particulars: acyl donor, amine acceptor 100 μM (which amine not told), 10 mM MgCl2, Tris-HCl pH 7.4, 30 °C.

In general, Km refers to the concentration of substrate that gives half-maximal velocity. The kcat is the number of substrate molecules converted per active site and unit of time at saturation. One may read the kcat/Km as the turnover number divided by the Michaelis constant.

B1: HvACT (Hordeum vulgare) (protein)
chain: MKITVHSSKAVKPEYGACGLAPGCTADVVPLTVLDKANFDTYISVIYAFHAPAPPNAVLEAGLGRALVDYREWAGRLGVDASGGRAILLNDAGARFVEATADVALDSVMPLKPTSEVLSLHPSGDDGPEELMLIQVTRFACGSLVVGFTTQHIVSDGRSTGNFFVAWSQATRGAAIDPVPVHDRASFFHPREPLHVEYEHRGVEFKPCEKAHDVVCGADGDEDEVVVNKVHFSREFISKLKAHASAGAPRPCSTLQCVVAHLWRSMTMARGLDGGETTSVAIAVDGRARMSPQVPDGYTGNVILWARPTTTAGELVTRPVKHAVELISREVARINDGYFKSFIDFANSGAVEKERLVATADAADMVLSPNIEVDSWLRIPFYDMDFGGGRPFFFMPSYLPVEGLLILLPSFLGDGSVDAYVPLFSRDMNTFKNCCYSLD
B1: the Km in “purified protein [1]” worked out at 161.3 ± 36.5 µM; in the series “purified protein [2]” it was 104.9 ± 26.3 µM; in the series “purified protein [3]”, 7.11 ± 2.14 µM; in the series “purified protein [4]”, 483.5 ± 63.2 µM. Also, the kcat in “purified protein [1]” came to 0.736 s⁻¹; in the series “purified protein [2]”, 1.04 s⁻¹; in “purified protein [3]”, 2.51 s⁻¹; in the series “purified protein [4]” it was 0.175 s⁻¹. Moreover, the values for the kcat/Km in the series “purified protein [1]”, in the series “purified protein [2]” and in the series “purified protein [3]” were 5000 M⁻¹ s⁻¹, 10000 M⁻¹ s⁻¹ and 353000 M⁻¹ s⁻¹, respectively.

Values taken from article PMC9280689, “Resistance to Powdery Mildew in Qingke Involves the Accumulation of Aromatic Phenolamides Through Jasmonate-Mediated Activation of Defense-Related Genes” (Frontiers in Plant Science, 2022).
